# US20240083945A1 (Bicycle, published 2024)
# Molecular target: T1, COVID-19 nucleocapsid protein (N-protein) (severe acute respiratory syndrome …, UniProt P0DTC9 1-419)
# T1 construct: also called nucleocapsid protein (N-protein) of severe acute respiratory syndrome coronavirus 2 (SARS-CoV-2)
# Assay: bio-layer interferometry (BLI)
row,Binder,Kd [nM]
1,"ACHTPDWSDFCAGRYCA (Ci, Cii and Ciii cysteines covalently bound to TBCU scaffold) [BCY16581]",8040
2,"ACSRGYCPRTNTFCA (Ci, Cii and Ciii cysteines covalently bound to TBMT scaffold) [BCY17637]",1050
3,"RRAVCTTDFCNNRYVVNRCA (Ci, Cii and Ciii cysteines covalently bound to TBMT scaffold) [BCY18976]",19.7
4,"ACYVGYCPATDTFCA (Ci, Cii and Ciii cysteines covalently bound to TBMT scaffold) [BCY17638]",805
5,"ACDGNFCDNRYIVNTCA (Ci, Cii and Ciii cysteines covalently bound to TBMT scaffold) [BCY17626]",263
6,"AYTDCTTDFCNNRYVVNRCA (Ci, Cii and Ciii cysteines covalently bound to TBMT scaffold) [BCY18974]",20.6
7,"ACEGDFCDGRYIVNTCA (Ci, Cii and Ciii cysteines covalently bound to TBMT scaffold) [BCY17627]",36.9
8,"ACWTDFCNNRYIVNTCA (Ci, Cii and Ciii cysteines covalently bound to TBMT scaffold) [BCY17624]",56.3
9,"ACNAWFCDGRFYMCA (Ci, Cii and Ciii cysteines covalently bound to TBCU scaffold) [BCY16569]",4270
10,"ACTKGYCPLTDMFCA (Ci, Cii and Ciii cysteines covalently bound to TBMT scaffold) [BCY17639]",1240
11,"ACTTDFCNNRYVVNRCDDYH (Ci, Cii and Ciii cysteines covalently bound to TBMT scaffold) [BCY18972]",22.2
12,"ACMQNPCRWVNIPCA (N-terminal acetyl (Ac); Ci, Cii and Ciii cysteines covalently bound to TATA scaffold) [BCY20266]",9.7
13,"ACSIGYCPVTDTFCA (Ci, Cii and Ciii cysteines covalently bound to TBMT scaffold) [BCY17641]",1740
14,"ACSEGWCFRENRYQVCA (Ci, Cii and Ciii cysteines covalently bound to TATA scaffold) [BCY16565]",1340
15,"ACTTDFCNNRYVVNRCA (Ci, Cii and Ciii cysteines covalently bound to TBMT scaffold) [BCY17628]",16.6
16,"ACWTDFCNNRYVVNRCA (N-terminal acetyl (Ac); Ci, Cii and Ciii cysteines covalently bound to TBMT scaffold) [BCY20264]",10.1
17,"ACPQTYCFINNRYCA (Ci, Cii and Ciii cysteines covalently bound to TBMT scaffold) [BCY16567]",1010
18,"ACKTYCFMENRYSLSCA (Ci, Cii and Ciii cysteines covalently bound to TBMT scaffold) [BCY16563]",1540
19,"ACIVGYCPATDDFCA (Ci, Cii and Ciii cysteines covalently bound to TBMT scaffold) [BCY16571]",797
20,"ACKRGYCPVTDTFCA (Ci, Cii and Ciii cysteines covalently bound to TBMT scaffold) [BCY17640]",43000
21,"ACPVRIEYPICDTSICA (Ci, Cii and Ciii cysteines covalently bound to TBMT scaffold) [BCY16582]",1790
22,"ACQYTFCENRYKICA (Ci, Cii and Ciii cysteines covalently bound to TATA scaffold) [BCY16564]",2080
23,"ACTSYFCNNRFTLNTCA (Ci, Cii and Ciii cysteines covalently bound to TBMT scaffold) [BCY16566]",1110
24,"ACSVGYCPLTNTFCA (Ci, Cii and Ciii cysteines covalently bound to TBMT scaffold) [BCY16572]",1660
25,"ACTTDFCNNRYVVNRCGSDN (Ci, Cii and Ciii cysteines covalently bound to TBMT scaffold) [BCY18971]",27.9
26,"ACNGDFCNNRYIVNTCA (Ci, Cii and Ciii cysteines covalently bound to TBMT scaffold) [BCY17625]",27.6
27,"ACTTDFCNSRYIVNTCA (Ci, Cii and Ciii cysteines covalently bound to TBMT scaffold) [BCY16570]",442
28,"QYESCTTDFCNNRYVVNRCA (Ci, Cii and Ciii cysteines covalently bound to TBMT scaffold) [BCY18975]",63.8
29,"ACTTDFCNNRYVVNRCEALE (Ci, Cii and Ciii cysteines covalently bound to TBMT scaffold) [BCY18970]",29.3
